Numbering of substitutions follows the chain as printed. Names may count otherwise.
T1: IL-18Rβ on KG-1 cells and human PBMC (human, UniProt O95256 20-599)
T1 sequence (looked up): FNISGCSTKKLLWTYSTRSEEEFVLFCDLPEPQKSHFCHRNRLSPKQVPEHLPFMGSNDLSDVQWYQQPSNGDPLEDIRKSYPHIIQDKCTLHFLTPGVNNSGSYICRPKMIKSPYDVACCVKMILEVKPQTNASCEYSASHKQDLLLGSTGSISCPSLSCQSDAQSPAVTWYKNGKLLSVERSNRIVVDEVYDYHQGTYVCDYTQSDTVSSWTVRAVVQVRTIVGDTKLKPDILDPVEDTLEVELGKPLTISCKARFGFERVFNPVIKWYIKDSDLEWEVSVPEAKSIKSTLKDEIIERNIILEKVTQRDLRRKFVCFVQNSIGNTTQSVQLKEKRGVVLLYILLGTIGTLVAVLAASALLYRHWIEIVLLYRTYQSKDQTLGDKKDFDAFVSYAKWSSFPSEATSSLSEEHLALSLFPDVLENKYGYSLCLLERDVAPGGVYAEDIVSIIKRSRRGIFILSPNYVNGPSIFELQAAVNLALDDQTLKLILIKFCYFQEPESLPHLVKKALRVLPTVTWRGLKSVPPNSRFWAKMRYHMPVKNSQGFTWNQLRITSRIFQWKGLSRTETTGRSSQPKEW

T2: 人IL-18Rβ蛋白 (IL-18Rβ antigen) (human)
T2 sequence (O95256 whole entry, species assumed, looked up): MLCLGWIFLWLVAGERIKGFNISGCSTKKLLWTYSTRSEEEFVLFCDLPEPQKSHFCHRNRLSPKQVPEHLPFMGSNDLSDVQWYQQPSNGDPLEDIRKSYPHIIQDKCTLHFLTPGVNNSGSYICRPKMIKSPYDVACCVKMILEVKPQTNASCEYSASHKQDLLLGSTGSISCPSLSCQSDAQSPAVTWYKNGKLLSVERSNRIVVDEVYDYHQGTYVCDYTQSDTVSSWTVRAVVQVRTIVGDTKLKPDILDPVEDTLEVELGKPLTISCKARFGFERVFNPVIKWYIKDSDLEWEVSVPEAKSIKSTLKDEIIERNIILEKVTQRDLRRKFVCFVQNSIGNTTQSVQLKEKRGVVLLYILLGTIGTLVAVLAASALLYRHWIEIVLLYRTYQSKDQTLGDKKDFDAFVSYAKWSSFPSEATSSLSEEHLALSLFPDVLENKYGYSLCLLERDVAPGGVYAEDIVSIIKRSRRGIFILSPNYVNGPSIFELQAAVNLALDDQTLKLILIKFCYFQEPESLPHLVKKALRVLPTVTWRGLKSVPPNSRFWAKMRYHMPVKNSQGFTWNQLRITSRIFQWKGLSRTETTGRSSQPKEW

T3: 人IL-18Rβ蛋白 (IL-18Rβ antigen) (human)
T3 chain: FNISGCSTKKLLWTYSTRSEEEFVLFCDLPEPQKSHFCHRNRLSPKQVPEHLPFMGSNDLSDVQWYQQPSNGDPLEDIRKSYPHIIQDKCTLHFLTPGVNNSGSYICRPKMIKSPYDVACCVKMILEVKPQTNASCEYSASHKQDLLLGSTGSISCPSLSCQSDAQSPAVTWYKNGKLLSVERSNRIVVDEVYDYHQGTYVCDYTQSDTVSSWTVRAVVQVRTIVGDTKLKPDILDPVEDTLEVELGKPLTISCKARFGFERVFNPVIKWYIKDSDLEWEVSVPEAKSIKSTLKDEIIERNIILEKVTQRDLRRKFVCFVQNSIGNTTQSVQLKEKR

B1: A037 full-length IgG (antibody, V domains shown)
VH: EVQLVESGGGLVQPGGSLRLSCAASGLNLYYSSMHWVRQAPGKGLEWVASIYSSNGRTYYADSVKGRFTISADTSKNTAYLQMNSLRAEDTAVYYCARSSFSHGYGWYGLDYWGQGTLVTVSS
VL: DIQMTQSPSSLSASVGDRVTITCRASQSVSFAVDWYQQKPGKAPKLLIYSASSLYSGVPSRFSGSRSGTDFTLTISSLQPEDFATYYCQQYGYHDAGLITFGQGTKVEIK
B2: A035 full-length IgG (antibody, V domains shown)
VH: B1 VH with L27I, S99A
VL: B1 VL with D34E
B3: A039 full-length IgG (antibody, V domains shown)
VH: B1 VH with L27I
VL: B1 VL with F31S
B4: C056-WT full-length antibody (parental antibody WT) (antibody, V domains shown)
VH: B1 VH with L27F
VL: B1 VL with F31S, D34A
B5: C056-WT Fab (wild-type anti-IL-18Rβ antibody) (Fab, V domains shown)
VH: B1 VH with L27F
VL: B1 VL with F31S, D34A
B6: A037 Fab clone (Fab, V domains shown)
VH: B1 VH
VL: B1 VL
notes: Mutations against C056-WT: VL-S31F/VL-A34D/VH-F27L
B7: A038 Fab clone (Fab, V domains shown)
VH: B1 VH with L27I
VL: B1 VL with F31S, D34E
notes: Mutations against C056-WT: VL-A34E/VH-F27I
B8: A036 Fab clone (Fab, V domains shown)
VH: B1 VH with L27I, S99A
VL: B1 VL with F31S
B9: A039 Fab clone (Fab, V domains shown)
VH: B1 VH with L27I
VL: B1 VL with F31S
notes: Mutations against C056-WT: VL-A34D/VH-F27I
B10: A035 Fab clone (Fab, V domains shown)
VH: B1 VH with L27I, S99A
VL: B1 VL with D34E
notes: Mutations against C056-WT: VL-S31F/VL-A34E/VH-F27I/VH-S99A
B11: A040 Fab clone (Fab, V domains shown)
VH: B1 VH
VL: B1 VL with F31S, D34E
B12: A041 Fab clone (Fab, V domains shown)
VH: B1 VH with L27V, S99A
VL: B1 VL
B13: A042 Fab clone (Fab, V domains shown)
VH: B1 VH with S99A
VL: B1 VL with F31S, D34E

What follows are binders tested against T1, IL-18Rβ on KG-1 cells and human PBMC (assay: cell-based or functional assay).

| IC50(nM), inhibition of IL-18-stimulated IFN-γ release in KG-1 cells [nM] | potency relative to WT antibody, KG-1 IFN-γ assay [fold] | Binder |
| --- | --- | --- |
| 0.27 | ~20 | B1 |
| 0.26 | ~20 | B2 |
| 0.59 | ~20 | B3 |
| 8.14 |  | B4 |

These binders were tested against T2, 人IL-18Rβ蛋白 (IL-18Rβ antigen) (human) (assay: SPR (Biacore 8K), Fab captured; ratio of kd, the reference itself).

| 比值(kd) | Binder |
| --- | --- |
| 1 | B5 |

What follows are binders tested against T2, 人IL-18Rβ蛋白 (IL-18Rβ antigen) (human) (assay: SPR (Biacore 8K), secreted Fab captured on SASA sensor, antigen injected, 1:1 fit).

| Kd [nM] | koff [s⁻¹] | kon [M⁻¹ s⁻¹] | Binder |
| --- | --- | --- | --- |
| 17.8 | 0.00119 | 66600 | B5 |

Target: T3, 人IL-18Rβ蛋白 (IL-18Rβ antigen)
Experiment: SPR (Biacore 8K), Fab captured; ratio of kd of C056-WT to kd of the clone

| 比值(kd) | Binder |
| --- | --- |
| 1190 | B6 |
| 21 | B7 |
| 17.2 | B8 |
| 39.7 | B9 |
| 37.3 | B10 |
| 14.9 | B11 |
| 18.7 | B12 |
| 11.2 | B13 |

Target: T3, 人IL-18Rβ蛋白 (IL-18Rβ antigen)
Experiment: SPR (Biacore 8K), secreted Fab captured on SASA sensor, antigen injected, 1:1 fit

| Kd [nM] | koff [s⁻¹] | kon [M⁻¹ s⁻¹] | Binder |
| --- | --- | --- | --- |
| 0.00847 | 1e-06 | 118000 | B6 |
| 0.725 | 5.67e-05 | 78200 | B7 |
| 0.648 | 6.91e-05 | 107000 | B8 |
| 0.26 | 3e-05 | 115000 | B9 |
| 0.224 | 3.19e-05 | 143000 | B10 |
| 1.04 | 8e-05 | 77000 | B11 |
| 0.415 | 6.35e-05 | 153000 | B12 |
| 1.34 | 0.000106 | 79000 | B13 |

These binders were tested against T2, 人IL-18Rβ蛋白 (IL-18Rβ antigen) (human) (assay: SPR (Biacore 8K), antibody captured on protein A chip, human IL-18Rβ 6.25-400 nM injected, 25°C).

| Kd [nM] | Binder |
| --- | --- |
| 15.8 | B4 |
